Measurements published in paper PMC6934807, “Development of hypoallergenic variants of the major horse allergen Equ c 1 for immunotherapy by rational structure based engineering” (Scientific Reports, 2019).
Residue numbers refer to the chain shown, from its start. In names and notes the source's numbering stands.

T1: recombinant Equ c 1 wild type (Equ c 1.0101) (horse)
T1 chain: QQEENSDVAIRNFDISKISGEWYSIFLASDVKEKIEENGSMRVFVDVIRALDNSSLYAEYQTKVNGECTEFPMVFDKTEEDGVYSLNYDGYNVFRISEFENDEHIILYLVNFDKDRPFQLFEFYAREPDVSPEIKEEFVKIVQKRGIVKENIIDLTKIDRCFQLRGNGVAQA

B1: Equ c 1 Triple 2 (V47K + V110E + F112K) (natural protein)
chain: T1 chain with V47K, V110E, F112K
B2: recombinant Equ c 1 wild type (Equ c 1.0101) (natural protein)
chain: T1 chain
modifications: extra vector-derived N-terminal Ala left out; disulfide Cys68-Cys161 (mature numbering, precursor = +15); homodimer at micromolar concentration (Kd 15.6 nM) / extra vector-derived N-terminal Ala left
B3: Equ c 1 Triple 3 (E21Y + V110E + F112K) (natural protein)
chain: T1 chain with E21Y, V110E, F112K

Tests used:
[1] = target: the molecule itself; experiment: cell-based or functional assay
[2] = target: T1, recombinant Equ c 1 wild type (Equ c …); experiment: native MS; native ESI FT-ICR MS, dilution series 0.1-4.8 µM (monomer) in 10 mM ammonium acetate, diluted samples kept four days at +4 °C, five parallel spectra per concentration; Kd from monomer and dimer ion intensities; dimer to monomers; conditions: both partners purified
[3] = target: T1, recombinant Equ c 1 wild type (Equ c …); experiment: SEC; SE-UHPLC, Acquity BEH125 SEC column, PBS (12 mM Na2HPO4, 3 mM NaH2PO4, 150 mM NaCl, pH 7.3), 2 µl of a 40 µM protein solution injected, compared with protein standards; conditions: both partners purified
[4] = target: the molecule itself; experiment: native MS; native ESI FT-ICR MS at 40 µM protein, 10 mM ammonium acetate pH 6.9; Kd of Triple 3 estimated from monomer and dimer intensities at this single concentration; dimer to monomers

| Binder | EC50 of histamine release from stripped basophils passively sensitised with serum A of a horse allergic person [1] | EC50 of histamine release from stripped basophils passively sensitised with serum B of a horse allergic person [1] | EC50 of histamine release from stripped basophils passively sensitised with serum C of a horse allergic person [1] | EC50 of histamine release from stripped basophils passively sensitised with serum D of a horse allergic person [1] | EC50 of histamine release from stripped basophils passively sensitised with serum E of a horse allergic person [1] | EC50 of histamine release from stripped basophils passively sensitised with serum F (RefLab's positive control serum) [1] | EC50 of histamine release from stripped basophils, median of the six sera [1] | Kd [2] | stoichiometry N [3] | Kd [4] |
| --- | --- | --- | --- | --- | --- | --- | --- | --- | --- | --- |
| B1 | 0.11 nM | 0.24 nM | 0.22 nM | 0.18 nM | 0.84 nM | 0.72 nM | 0.23 nM | – | – | – |
| B2 | – | – | – | – | – | – | – | 15.6 ± 0.8 nM | 2 | – |
| B3 | 0.29 nM | 0.42 nM | 0.52 nM | 0.26 nM | 3.7 nM | 1.1 nM | 0.47 nM | – | – | ~800000 nM |
